In the nanobody polyreactivity screen of Harvey et al. (2022):

Experiment: yeast display, Sf9 membrane polyspecificity reagent, FACS + sequencing; frameworks hold sequencing errors
Summary of the method: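 Galactose induction of a Saccharomyces cerevisiae BJ5465 synthetic nanobody display library ran 36–48 hours. The cells were then stained for 1 hour at 4 °C with 10% biotinylated, detergent-solubilized Sf9 membrane reagent, pulled down on streptavidin microbeads and FACS-sorted into low and high (top ~1%) gates on expression and reagent-binding fluorescence. Labels for polyreactivity follow the gate of origin.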

Sequence | polyreactivity (PSR sort gate)
QVQLVESGGGLVQAGGSLRLSCAASGSIFYKNAMGWYRQAPGKERELVAVISTSGSTYYADSVKGRFTISRDNAKNTVYLQMKSLKPEDTAVYYCATKVRRWYSARSPNVRFDYWGQGTQVTVSS | high polyreactivity
QVQLVESGGGLVQAGGSLRLSSAASGRILYRYAMGWYRQAPGKESELVAAIYRSGGDTYYADSVKGRFTITRDNAKNTVYLQMNSLIPEDTAVYYCAASFEGSGYRYDYWGQGSQVTVSS | low polyreactivity
QVQLVESGGGLVQAGGSLRLSCAASGFTFRYNAMGWYRQAPGKERELVAAITNSGGGTYYADSVKGRFTISRDNAKNTVYLQMNSLKPEDTAVYYCNAKRTNRYVWGKYDYWGQGTQVTVSS | high polyreactivity
QVQLVESCGGLVQAGGSLRLSCAASGRNIWDYGMVWYRQAPGKERELVAVITWGGGSTYYADSVKGRFTISRDNAMNTVYLQMNSLKPEDSAVYYCAKEYHYYYWGQGTQVTVSS | low polyreactivity
QVQLVESGGGLVQAGGSLPLTCAASGSIFAWNDMGWYRQAPGKERELVAAIRESGTGTYADSVKGRFTISRDNAKNNVYLQMKSLKPEDTAVYYGVADEIQFFIYRMEYWGQGTQVTVSS | low polyreactivity
QVQLVESGGGLVQAGGSLRLSCAASGGIFYLYAMGWYRQAPGKERELVAAISWSGTSTYYADSVKGRFTISRDNAKNTVYLQMNSLKPEDTAVYYCAADYERYYAKAINYDYWGQGTQVTVSS | low polyreactivity
QVHLVESGGGLVQAGGSLRLSCAASGTIYYVYSMVWYRQAPGKERELVASINKSGGSTYYADSVKWRFTISRDNAKNTVYLQMNSLKREDTAVYYCAARTGWPRVGFQYPAHVGFDYWGQGTQVTVSS | low polyreactivity
QVQLVESGGGLVQAGGRLRLSCAASGRIFYFYDMGWYRQAPGTERELGAAISRGGSTNYADSVKGRFTISRDNAKNTVYLQMNRLKPQDTAVYYCNAGLYDLRDIAGYSDYDYWGQGTQVTVSS | low polyreactivity
QVHLVESGGGLVQAGGSLRLSCAASGSIYPYTMGWYRQAPGKERELVAGITRSGGRTYYADSVKGRFTISRDNAKNTVYLQMNSLKPEDTAVYYCAAGTTAWYWSEYYYWGQGTQVTVSS | high polyreactivity
QVQLVEPGGGLVQAGGSLRLSCAASGFTFYDYAMGWYRQAPGKERELVARINGGGGTNYADSVKGRFTISRDNAKNTVYLQMNSLKPEDSAVYYCAADLYFRQGDVDLLRYDYWGQGTQVTVSS | low polyreactivity
QVQLVESGRGLVQAGGSLRLSCASSGFTLSPNAMRWYRPAPGKEREFVAAISQRGGSTYYADSVKGRFTISRDNAKNTVYLQMNSLKPEDTAVYYCARDTKYKYDFWGQGTQVTVSS | low polyreactivity
QVHLVESGGGLVQAGGRLRLSCAASGRTFFWYAMGWYRQAPGKEREFVAAITWRTGSTYYADSVKGRFTLSRDNAKNTVYLQMNSLKPEDTAVYYCAGEFPWSFATYYSWGQGTQVTVSS | high polyreactivity
QVQLVESGGGLVQTGGSLRISCAASGSTFYYYAIGWYRQAAGKERELVAGISWGGGSTYYEDSVKGRFTISRDNAKNTVYLQMNSLKPEDTAVYYCNALNPKSYDYWGHGTQVTVSS | low polyreactivity
QVQLVESGGGLVQAGGSLRYSCAASGLIFQHNALGWYRPAPGKERELVAAISGSGGSTYYADSVKGRFTISRDNAKNTVYLQMNSLKPEDTAVYYCATDDRYYRRYYWGQGTQVTVAS | high polyreactivity
QDQHVESGGGLVQAGGRLRLSCAASGRIFSFYVMGWYIQAPGKERELVASISLSGGSTYYADSVKGRFTFSRDNAKNTVYLQMNSLKPEDTEVYYCNAVLYARQRERWARYDYWGQGTQVTVSS | high polyreactivity
QDQLVESGGGLVQAGGSLRLSCAASGLIFNVNNMGWYRQAPGKDRELVAAISWSGTSTYYADSVKGRFTISRDKAKNTVYLQMNSLKPEDTAVYYCAAYNHRWEYEYWGQGTQVTVSS | high polyreactivity

Sequence | polyreactivity (PSR sort gate)
QVQLVESGGGLVQAGGSLRLSCAASGSTFRQYSMGWYRQAPGKERELVAAISWSGGSTYYADSVKGRFTISRDNAKNTVYLQMNSLKPEDTAVYYCAAGRGGHRYKVGYWGQGTQVTVSS | high polyreactivity
QVQLVESGGGLVQSGGSLRLSCAASGRTFYRYAMGWYRQAPGKERELVAAISYSTTRTYYADSVKGRFTISRDIAKNTVYLQMNSLKPEETAVYYCAAYGWSRFGYDYWGQGSQVTVSS | high polyreactivity
QVQLVESGGGLVQAGGSLRLSCAASGFTFFRYAMGWYRQAPGKERDLVAAITSGGGRTYYADSVKGRFTISRYNAKNTVYLQMNRLKPEDTAVYYCNAVRRVDMYYWGLGTQVTVSS | high polyreactivity
QVQRVESAGGLVQAGGSLRLSCAASGRTFSGNARGWYRPAPGKERELVAGISTTGGSTYYADSVKGRFTISRDNAKNTVYLEMNSLKPADTAVYYCAAYSASNGGYDYWGQGTQVTVSS | high polyreactivity
QVQHVESGGGLVQAGGSLRLSCAASGSTFDGYAMGWYRQAPGKERELVAAISRSGGRTYYADSVKGRFTISRDNAKNTVYLQMTSLKPEDTAVYYCAALYPYKREDYWGQGTQVTVSS | high polyreactivity
QVQLVESGGGLVQAGGSLRLSCAASGFTFRSYAMGWYRQAPGKERELVASISPGATTKYADSVKGRFTISRDNAKNTVYLQMNSLKPEDTAVYYYEVYQILVRRLSYWGQGTQVTVSC | high polyreactivity
QVQLVESGGGLVQAGGSLRLSCAASGSTFDTNDMGWDRQAPGKERELVAAISSGGDYADSVKGRFTISRDNAKNTVYLQLNSLKPEDTAVYYCAKADTKWGQGTQVTVSS | low polyreactivity
QVQLVESGGGLVQAGGSLRLSCAASGRTFFGYAMGWYRQAPGKEREFVAAISGSGGSTYYADSVKGRFTISRDNAKNTVYLQMNSLKPEDTAVYYCNGDYWGEYYYWGQGTQVSVSS | low polyreactivity
QVQLVESGGGLVQAAGSLRLSCAASGRTFYVYDMGWYRQAPGKERELVAVISSSGSTNYADSVKGRFTISGDNAKNSVYLQMNSLKPEDTAVYDCYRRRWYFFSLDYWGQGTQVTVSS | high polyreactivity
QVQLVESGGGLVQPGGSLRLSCAASGFTFYPYVMGWYRQAPGKERELVAPINSGGARTYYADSEKGRFTISRDNAKNTVYYQIIRLKPEDTAVYYCAARTVVGGRIYYYWGQGTQVTVSS | low polyreactivity
QVQLVESGGGLVQAGGSLRLSCAASGSNIERNAMGWYIQAPGKERELVANITWSGVSTYYADSVKGRFTISRDNAKNTVYLQMNSLKPEDTAVYYCNADYSYRHWYDPGQYGQAMGYWGQGTQVTVSS | low polyreactivity
QVQLVESGGGLVQAGGSLRLSCAASGITFYLYDMGWYRQAPGKERELVASITSDGSTDYADSVKGRFTISRDNAKNTVYLQMNSLKPEDTAVYYCNARVTYAWYRFGRSGDDSWGQGTQVTVSS | low polyreactivity
QVQHVESGGGLVQAGASLRLSCAASGLTFRSNAMGWYSQAPGKERELVAAISSSGGSTYYADSVKGRFTISRDNAQNTVYLQMNSLKPEDTAVYYCAAEDPGDQYDYWGQGTQVTVSS | high polyreactivity
QVQLVESGAGLVQAGGSLRLSCAASGSNFKWYAMGLYRQAPGKEREFVAAITWSGSGTFYADSVKGRFTISRDNAKKTVYLQMNSLKPEDTAVYYCNKADSYLLYSVTARYFRGFYSWGQVTQVTVSS | high polyreactivity
QVQLVESGGGLVQAGGSLRLSCAASGGTFPRNAMGWYRQAPGKERELVAAISRRGGSTYYADSVKGRFTISRDNAKNTVYLQMNSLKPEDTAVYYCATVQDKTYEYGYWGQGTQVTVSS | high polyreactivity
QVQLVESGGGLVQAGGSLRLSCAASGFTFRSYAMGWYRQAPGKERELVADISIRGGGTYYADTVKGRFTISRDNAKNTVYLQMNSLKPEDTAVYYCAAERYKPFLWPRYDYWGQGTQVTVSS | low polyreactivity
